According to paper PMC8017708:
Where a chain is given by its changes, count along the chain named. In names and notes the source's numbering stands. Values belong to the binder of their own block, whether it stands above or below them.

Experiments:
Conditions in all cases: remark: other sources report otherwise
[1] = target: T1, recombinant UVR8 (wild-type) purified from Sf9 insect cells (Arabidopsis thaliana), Q9FN03; test: SEC
T1 chain: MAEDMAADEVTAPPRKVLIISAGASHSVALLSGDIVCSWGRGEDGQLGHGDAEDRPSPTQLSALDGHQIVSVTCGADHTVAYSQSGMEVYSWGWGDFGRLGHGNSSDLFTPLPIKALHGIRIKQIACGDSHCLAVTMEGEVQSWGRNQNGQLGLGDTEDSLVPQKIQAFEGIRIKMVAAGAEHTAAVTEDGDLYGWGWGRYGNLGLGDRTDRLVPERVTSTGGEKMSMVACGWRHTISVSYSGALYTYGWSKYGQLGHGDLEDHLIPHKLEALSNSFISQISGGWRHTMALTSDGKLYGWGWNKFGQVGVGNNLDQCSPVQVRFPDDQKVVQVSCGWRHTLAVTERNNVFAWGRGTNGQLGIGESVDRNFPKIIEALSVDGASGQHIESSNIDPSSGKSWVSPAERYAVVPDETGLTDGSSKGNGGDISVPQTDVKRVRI

[2] = target: T2, recombinant UVR8^W285A purified from Sf9 insect cells (Arabidopsis thaliana), Q9FN03; test: SEC
T2 chain: T1 chain with W285A

[3] = target: T3, UVR8^W285A expressed in Arabidopsis (Arabidopsis thaliana), Q9FN03; test: cross-linking
T3 chain: T1 chain with W285A

stoichiometry N [1]: 2
B1: recombinant UVR8 (wild-type) purified from Sf9 insect cells, Q9FN03 1-440 (natural protein)
chain: T1 chain

stoichiometry N [2]: 2
B2: recombinant UVR8^W285A purified from Sf9 insect cells, Q9FN03 1-440 (natural protein)
chain: T1 chain with W285A

stoichiometry N [3]: 2
B3: UVR8^W285A expressed in Arabidopsis, Q9FN03 1-440 (natural protein)
chain: T1 chain with W285A
